The results in this text go back to patent WO2025037032A1.

The target of the test is coagulation Factor VIII (human) (UniProt P00451). As to the kind of experiment: VWF:FVIIIB enzyme immunoassay; VWF of human plasma captured with rabbit anti-human VWF F(ab')2, bound FVIII detected; plasma pre-incubated 17 h at 37°C with 200 or 600 nM one-arm anti-VWF CK domain antibodies.
Chain of UniProt P00451 (P00451 20-2351): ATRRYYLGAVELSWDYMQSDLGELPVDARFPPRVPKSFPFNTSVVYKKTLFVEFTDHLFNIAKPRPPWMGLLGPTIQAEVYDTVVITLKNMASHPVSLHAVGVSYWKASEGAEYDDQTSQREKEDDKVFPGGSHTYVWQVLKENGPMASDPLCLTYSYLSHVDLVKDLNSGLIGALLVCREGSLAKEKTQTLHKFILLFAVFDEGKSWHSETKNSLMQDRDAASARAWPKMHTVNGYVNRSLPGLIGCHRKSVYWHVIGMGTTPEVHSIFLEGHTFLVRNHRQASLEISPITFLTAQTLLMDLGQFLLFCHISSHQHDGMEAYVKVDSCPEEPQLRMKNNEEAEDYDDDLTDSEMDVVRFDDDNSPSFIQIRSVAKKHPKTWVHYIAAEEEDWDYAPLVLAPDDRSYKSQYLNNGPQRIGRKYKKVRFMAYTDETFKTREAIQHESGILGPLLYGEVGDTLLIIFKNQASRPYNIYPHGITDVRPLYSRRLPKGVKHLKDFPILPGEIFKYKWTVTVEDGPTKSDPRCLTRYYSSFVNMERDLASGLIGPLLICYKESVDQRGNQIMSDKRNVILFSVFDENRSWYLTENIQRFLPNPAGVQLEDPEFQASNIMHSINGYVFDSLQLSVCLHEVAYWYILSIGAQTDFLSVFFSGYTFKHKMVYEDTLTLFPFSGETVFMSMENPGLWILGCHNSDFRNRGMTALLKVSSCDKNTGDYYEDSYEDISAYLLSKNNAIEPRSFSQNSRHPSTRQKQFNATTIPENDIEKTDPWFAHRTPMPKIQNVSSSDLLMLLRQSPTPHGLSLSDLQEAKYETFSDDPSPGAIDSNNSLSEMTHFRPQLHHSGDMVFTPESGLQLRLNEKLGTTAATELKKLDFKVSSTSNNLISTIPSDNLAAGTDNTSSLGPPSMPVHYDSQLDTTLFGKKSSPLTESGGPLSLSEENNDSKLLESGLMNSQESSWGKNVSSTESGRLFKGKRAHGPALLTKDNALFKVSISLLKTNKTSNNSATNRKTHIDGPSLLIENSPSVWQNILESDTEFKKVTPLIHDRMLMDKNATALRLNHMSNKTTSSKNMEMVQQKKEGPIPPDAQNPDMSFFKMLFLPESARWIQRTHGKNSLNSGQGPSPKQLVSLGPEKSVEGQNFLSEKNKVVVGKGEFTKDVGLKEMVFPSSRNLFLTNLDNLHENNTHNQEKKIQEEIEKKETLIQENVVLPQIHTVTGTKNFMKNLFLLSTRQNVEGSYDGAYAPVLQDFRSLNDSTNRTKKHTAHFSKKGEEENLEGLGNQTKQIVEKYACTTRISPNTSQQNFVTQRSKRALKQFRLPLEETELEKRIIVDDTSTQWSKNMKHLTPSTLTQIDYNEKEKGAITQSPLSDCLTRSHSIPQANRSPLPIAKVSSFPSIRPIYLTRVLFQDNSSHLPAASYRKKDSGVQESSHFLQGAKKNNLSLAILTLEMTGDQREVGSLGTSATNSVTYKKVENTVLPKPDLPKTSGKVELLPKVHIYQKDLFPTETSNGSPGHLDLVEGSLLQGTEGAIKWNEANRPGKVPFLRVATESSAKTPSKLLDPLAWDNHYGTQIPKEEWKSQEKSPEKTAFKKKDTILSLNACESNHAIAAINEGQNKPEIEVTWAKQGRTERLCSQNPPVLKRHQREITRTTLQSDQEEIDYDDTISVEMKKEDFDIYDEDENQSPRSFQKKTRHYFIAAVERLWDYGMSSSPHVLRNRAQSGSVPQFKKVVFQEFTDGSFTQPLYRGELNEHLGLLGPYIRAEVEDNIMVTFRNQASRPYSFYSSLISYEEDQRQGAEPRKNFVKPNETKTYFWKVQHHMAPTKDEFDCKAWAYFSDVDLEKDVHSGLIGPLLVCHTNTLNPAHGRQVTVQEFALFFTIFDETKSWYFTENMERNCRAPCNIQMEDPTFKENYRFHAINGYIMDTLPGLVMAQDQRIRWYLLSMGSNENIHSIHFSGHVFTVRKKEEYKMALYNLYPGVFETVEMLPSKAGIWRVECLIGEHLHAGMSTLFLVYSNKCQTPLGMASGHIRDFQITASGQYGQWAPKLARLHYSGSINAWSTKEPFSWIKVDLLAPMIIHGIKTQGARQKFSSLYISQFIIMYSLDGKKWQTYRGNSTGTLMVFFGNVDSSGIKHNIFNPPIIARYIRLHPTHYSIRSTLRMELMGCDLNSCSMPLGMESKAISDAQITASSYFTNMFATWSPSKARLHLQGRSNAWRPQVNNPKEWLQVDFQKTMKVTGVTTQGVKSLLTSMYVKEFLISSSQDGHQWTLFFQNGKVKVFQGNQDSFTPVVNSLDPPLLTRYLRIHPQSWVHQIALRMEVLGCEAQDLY

The substance “human plasma-derived VWF (from UniProt P04275 764-2813)” displayed a mean level of VWF:FVIII relative to untreated donor-matched plasma of more than 80%.
